# Measured values taken from the DeepSol protein solubility set.
# Test: soluble on expression in E. coli; label from the status in PepcDB or PDB records
row,Sequence,soluble on expression in E. coli
1,MSSRIRINTKSLLVQPGYSGSKMRDRLFFLLSKYGIRPRDSIGQHFLIIEDVIEKAIETANVNENDVILEVGPGLGFLTDELAKRAKKVYTIEIDQKIIEILKKEYSWNNVKIIQGDAVRVEWPKFNKVVSNIPYKISSPFTFKLLKTDFERAVVMYQLEFALRMVAKPGSRNYSRLSLMAQALGNVEIVMKIGKGAFYPRPKVDSALVLIEPRKDKIVLNENLVKALFQHRRKTVPRALKDSIHMLGVSKDEIRGIINNVPHSNKRVFQLYPEEVKDIEEYLKKHGIIS,soluble
2,MSSSGNGRSNNDRADQLRREEQERKDRELAERLQREQSDDTPPAVARRGRNRAAARERASPYSRSRIRSTAGTSDAGPSSSSSVRGRGTRGTTSARRGRGSARGGEATMNRTRANQQISESPNRRRSTRQTRNPNPQMQFEGDRVQVRQGDEIRDITAETYFPDDDDDSDYTQSDNEEEEERNATITISSSESDADSEAESDHEERDMPRAFNPRGSYARSGRGPGGRGRVITPGRYRGSGQHNISADYIRDLLHSRIYPDNPRRDPLYRSGLNNEDESDPENVDADSDDDEAQSNGSSVIDLSDDDDVLIIGGRGAVHADRNHIRQPIFDEDRVMYNHELELYHDEEEYIVPAAKPVSAGGKLVEPDSTWGDCTMCSNPPIKPQGCKKCLQFLGCTDCVRRWYAARKGSMEGSSCPLCRAPWTGRAGVLMMTTIQKNVKKAGITSANTSSDSSLPSTSSLPNN,not soluble
3,MSSSSGNQNSKEHKVAVTHDLGKTNVPEHPKRVVVLELGFIDTLLDLGITPVGVADDNKAKQLINKDVLKKIDGYTSVGTRSQPSMEKIASLKPDLIIADTTRHKKVYDQLKKIAPTIALNNLNADYQDTIDASLTIAKAVGKEKEMEKKLTAHEEKLSETKQKISANSQSVLLIGNTNDTIMARDENFFTSRLLTQVGYRYAISTSGNSDSSNGGDSVNMKMTLEQLLKTDPDVIILMTGKTDDLDADGKRPIEKNVLWKKLKAVKNGHVYHVDRAVWSLRRSVDGANAILDELQKEMPAAKKLEHHHHHH,not soluble
4,MSSSSPGEPLEPTDQDLDVLLKNLGNLVTPMALRVAATLRLVDHLLAGADTLAGLADRTDTHPQALSRLVRHLTVVGVLEGGEKQGRPLRPTRLGMLLADGHPAQQRAWLDLNGAVSHADLAFTGLLDVVRTGRPAYAGRYGRPFWEDLSADVALADSFDALMSCDEDLAYEAPADAYDWSAVRHVLDVGGGNGGMLAAIALRAPHLRGTLVELAGPAERARRRFADAGLADRVTVAEGDFFKPLPVTADVVLLSFVLLNWSDEDALTILRGCVRALEPGGRLLVLDRADVEGDGADRFFSTLLDLRMLTFMGGRVRTRDEVVDLAGSAGLALASERTSGSTTLPFDFSILEFTAVSEEAAPAAQASEALPAQE,soluble
5,MSTAEQRMDTSEVELPNDNVNEQGNKTPRADQPESSASGARNHGEDEEVTEQVELAAMETEASDSIVDNVPKTPRRAGRPKKLPSTSTAAAESAVTPGKRGRKRKGSESVNTTINSTMNSTLNEPKTPGRKQAKLVAPLLTYDLFAPSIIGDRVLSCGEGEALGHPGRTTTKKPRKVDIFEEEGLKPLQAVAGGVHSAVLTSEGEVYMCGINEKGTVPAEGVEKEGSTDEFAKVKFEEDIEKEGKIVMLAAGASFTAALTDQGSVIAWGNLRNSNGNVDVHPLLHKMQEAPVVIVHQAKRKIVKIAAGENHLVMLDEKGCLLTFGDGEMGQLGRSSRTKTIRSKYMCDESGDHLLVPLRFKHKGKFFDVVAKNVFASGFWTIVHGEDGKYYAFGLNNYAQLGIKVDEADVGQDGQDNRELRVFLPAEAPAFGAERTFVNIEGVQHVVILGSDGKVFAMGKNTDNALGLGNWTGKDDQQHWLYDTIQEIEFDSKIVGVSAKLATSIAWSEDGTAYAWGFDTTGQLGLGLKDEDEKMVSKPEEISSAHLDGYSIIGASISDQHTLIIAKKN,soluble
6,MSTDSQNPVRKSCAQPHSCSQEVRLKAMSRSPLTKGLNQLEHLELDKSLTAWSWAEDDPLYLAGENLNGSYLIVAGRVRVSRDTIDGKELTVDIATPGDVIGAIDTEPQPAVDSAWAIETTCALFLPATALATVIEQHPSFALAMIRMQQQRLATARDHEINLTTTTVEQRVAIAVRTLGRKIGQRRPDGILLIQVRIRREDVAGLAGTTVESTSRVLARLRKEGVIDSGREWIAVVDERQLDAIIGEDF,not soluble
